Test results published in patent US20100034738A1 (IMMUNOMEDICS, published 2010).

Key:
[1] = target: T1, CD20 (human B lymphocyte-restricted differentiation antigen, Bp35) (human) (UniProt P11836); assay: flow cytometry, PE-labelled MAb dissociating from Raji cells, without competing veltuzumab-Fab'-NEM
T1 sequence (looked up): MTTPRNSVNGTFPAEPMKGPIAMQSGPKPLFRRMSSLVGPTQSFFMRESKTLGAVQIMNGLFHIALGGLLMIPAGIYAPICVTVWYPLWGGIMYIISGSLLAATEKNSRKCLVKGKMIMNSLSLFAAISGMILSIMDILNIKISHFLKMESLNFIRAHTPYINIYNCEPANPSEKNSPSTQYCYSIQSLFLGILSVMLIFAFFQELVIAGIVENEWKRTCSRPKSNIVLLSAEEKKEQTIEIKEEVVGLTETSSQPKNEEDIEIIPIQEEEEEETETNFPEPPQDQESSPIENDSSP

[2] = target: T1, CD20 (human B lymphocyte-restricted differentiation antigen, Bp35) (human); assay: cell-based or functional assay
[3] = target: T2, CD20 (human B lymphocyte-restricted differentiation antigen, Bp35) (human, UniProt P11836 1-297); assay: flow cytometry, dissociation of PE-labelled MAb from live Raji cells (exp 1) at 37 C with excess veltuzumab Fab'-NEM; % T=0 MFI against time, one-phase exponential decay fit [table, column Raji (exp 1)]
T2 construct: whole, on cells; Endogenous CD20 on lymphoma cell lines; also called cell-surface CD20
T2 sequence (looked up): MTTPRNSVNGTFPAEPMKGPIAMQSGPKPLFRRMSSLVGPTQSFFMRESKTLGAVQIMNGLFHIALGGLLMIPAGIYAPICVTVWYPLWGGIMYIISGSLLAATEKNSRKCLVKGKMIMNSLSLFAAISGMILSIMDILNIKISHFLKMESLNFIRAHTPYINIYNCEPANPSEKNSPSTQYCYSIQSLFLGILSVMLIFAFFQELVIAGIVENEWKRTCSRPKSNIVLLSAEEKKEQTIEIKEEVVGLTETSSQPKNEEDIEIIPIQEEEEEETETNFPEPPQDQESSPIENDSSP
Experimental: (§1) FIG. 5. […] The off-rate was determined by non-linear regression (one phase exponential decay) and P-values were generated by F-test using GraphPad Prism software.
(§2) Cells (Daudi, Raji, or Ramos) in 0.5 mL of CM (phenol red-free RPMI 1640 media supplemented with 10% FBS) at 1×10⁶ cells/mL were incubated with 5 μg of each PE-labeled MAb at room temperature for 30 min, pelleted at 400×g, washed twice with CM, resuspended in 1.5 mL of CM, and split into two 0.75-mL aliquots. […] Subsequent measurements were taken at 30-min intervals. The percent maximal binding, which is the quotient of the MFI at T=X divided by that at T=0, was plotted against time, and the results analyzed by Prism software (GraphPad Software Inc., San Diego, Calif.) to yield the half-life or off-rates.

[4] = target: T2, CD20 (human B lymphocyte-restricted …); assay: flow cytometry, PE-labelled MAb dissociating from Raji cells, without competing veltuzumab-Fab'-NEM
Experimental: as §2

[5] = target: T2, CD20 (human B lymphocyte-restricted …); assay: flow cytometry, dissociation of PE-labelled MAb from live Daudi cells at 37 C with excess veltuzumab Fab'-NEM; % T=0 MFI against time, one-phase exponential decay fit [table, column Daudi]
Experimental: as §1, §2

[6] = target: T2, CD20 (human B lymphocyte-restricted …); assay: flow cytometry, PE-labelled MAb dissociating from Daudi, Ramos and Raji cells at 37 C with excess veltuzumab-Fab'-NEM
Experimental: as §2

[7] = target: T2, CD20 (human B lymphocyte-restricted …); assay: flow cytometry off-rate on lymphoma cells, with or without a competitive binder (summary of Example 5)
Experimental: as §2

[8] = target: T2, CD20 (human B lymphocyte-restricted …); assay: flow cytometry, dissociation of PE-labelled MAb from live Raji cells (exp 2) at 37 C with excess veltuzumab Fab'-NEM; % T=0 MFI against time, one-phase exponential decay fit [table, column Raji (exp 2)]
Experimental: as §2

[9] = target: T2, CD20 (human B lymphocyte-restricted …); assay: flow cytometry, dissociation of PE-labelled MAb from live Ramos cells at 37 C with excess veltuzumab Fab'-NEM; % T=0 MFI against time, one-phase exponential decay fit [table, column Ramos]
Experimental: as §1, §2

[10] = target: T2, CD20 (human B lymphocyte-restricted …); assay: saturation binding of 125I-labelled MAb to Raji cells, nonlinear regression / Scatchard; apparent KD, replicate assays
Experimental: (§3) Raji cells (5×10⁵) were incubated with radioiodinated MAbs in an assay volume of 225 μl, using tissue culture media as diluent, for 1 h at 37° C. or room temperature. Cells then were washed twice with PBS containing 1% horse serum, and cell pellets were counted in a gamma counter. The MAbs were titrated at a 2:3 serial dilution starting with approximately 2×10⁶ cpm/2 μg MAb/tube, run in triplicate. Non-specific binding was measured by including replicate unlabeled MAb.

[11] = target: T2, CD20 (human B lymphocyte-restricted …); assay: direct cell-surface saturation binding of 125I-labelled MAb to Raji cells; non-linear regression, one-site binding model (Prism); one representative of three experiments
Experimental: FIG. 4. […] Bₘₐₓ and Kd were determined by non-linear regression analysis using a one-site binding model with Prism software.
as §3

anti-idiotype antibodies = assay: binding of radioiodinated MAb to anti-idiotype antibodies
[12] = target: T2, CD20 (human B lymphocyte-restricted …); assay: flow cytometry, PE-labelled MAb dissociating from Raji cells at 37 C with excess veltuzumab-Fab'-NEM
Experimental: as §2

1F5, murine anti-CD20 monoclonal antibody
dissociation half-life [1]: 195 min

B1: V102Y, variant of hA20 with Val to Tyr at Kabat position 102 in the CDR3 of VH (antibody, name in Kabat numbering, V domains shown)
VH: QVQLQQSGAEVKKPGSSVKVSCKASGYTFTSYNMHWVKQAPGQGLEWIGAIYPGNGDTSYNQKFKGKATLTADESTNTAYMELSSLRSEDTAFYYCARSTYYGGDWYFDYWGQGTTVTVSS
VL: DIQLTQSPSSLSASVGDRVTMTCRASSSVSYIHWFQQKPGKAPKPWIYATSNLASGVPVRFSGSGSGTDYTFTISSLQPEDIATYYCQQWTSNPPTFGGGTKLEIK
ADCC (% lysis), Daudi targets, Donor 001 [2]: 47.5 % lysis
ADCC (% lysis), Daudi targets, Donor 006 [2]: 24.2 % lysis
ADCC (% lysis), Daudi targets, Donor 009 [2]: 33.4 % lysis

B2: YDE, Fc variant of V102Y with S239D and I332E in the CH2 domain (antibody, name in Kabat numbering, V domains shown)
VH: QVQLQQSGAEVKKPGSSVKVSCKASGYTFTSYNMHWVKQAPGQGLEWIGAIYPGNGDTSYNQKFKGKATLTADESTNTAYMELSSLRSEDTAFYYCARSTYYGGDWYFDYWGQGTTVTVSS
VL: DIQLTQSPSSLSASVGDRVTMTCRASSSVSYIHWFQQKPGKAPKPWIYATSNLASGVPVRFSGSGSGTDYTFTISSLQPEDIATYYCQQWTSNPPTFGGGTKLEIK
ADCC (% lysis), Daudi targets, Donor 001 [2]: 58.3 % lysis
ADCC (% lysis), Daudi targets, Donor 006 [2]: 31.5 % lysis
ADCC (% lysis), Daudi targets, Donor 009 [2]: 54.5 % lysis

B3: veltuzumab (hA20), humanized anti-CD20 antibody (antibody, V domains shown)
VH: QVQLQQSGAEVKKPGSSVKVSCKASGYTFTSYNMHWVKQAPGQGLEWIGAIYPGNGDTSYNQKFKGKATLTADESTNTAYMELSSLRSEDTAFYYCARSTYYGGDWYFDVWGQGTTVTVSS
VL: DIQLTQSPSSLSASVGDRVTMTCRASSSVSYIHWFQQKPGKAPKPWIYATSNLASGVPVRFSGSGSGTDYTFTISSLQPEDIATYYCQQWTSNPPTFGGGTKLEIK
notes: It was 125I-labelled in the Scatchard assay and PE-labelled (Zenon kit) in the off-rate assay; also called v-mab; Vmab
Dissociation Rates (T 1/2 Min) [3]: 59.1 min
dissociation half-life [4]: 281 min
Dissociation Rates (T 1/2 Min) [5]: 54.4 min
dissociation half-life, fold longer than rituximab [6]: 2.7 fold
off-rate, fold slower than rituximab or D101N [7]: ~2.5 fold
Dissociation Rates (T 1/2 Min) [8]: 61.8 min
Dissociation Rates (T 1/2 Min) [9]: 57 min
Kd [10]: 6.23 to 12 nM
Kd [11]: 10.8 nM
immunoreactivity (anti-idiotype antibodies): > 90%

B4: D101N, mutant of veltuzumab with Asp to Asn at Kabat position 101 in CDRH3 (antibody, name in Kabat numbering, V domains shown)
VH: QVQLQQSGAEVKKPGSSVKVSCKASGYTFTSYNMHWVKQAPGQGLEWIGAIYPGNGDTSYNQKFKGKATLTADESTNTAYMELSSLRSEDTAFYYCARSTYYGGDWYFNVWGQGTTVTVSS
VL: DIQLTQSPSSLSASVGDRVTMTCRASSSVSYIHWFQQKPGKAPKPWIYATSNLASGVPVRFSGSGSGTDYTFTISSLQPEDIATYYCQQWTSNPPTFGGGTKLEIK
notes: Same CDRs as rituximab and identical FRs to veltuzumab; also called D101N-hA20
dissociation half-life [4]: 42 min
Dissociation Rates (T 1/2 Min) [8]: 9.4 min
off-rate, fold faster than rituximab [12]: 2 fold
off-rate, fold faster than veltuzumab [12]: 6 fold

B5: rituximab (chimeric anti-CD20, c2B8) (antibody, V domains shown)
VH: QVQLQQPGAELVKPGASVKMSCKASGYTFTSYNMHWVKQTPGRGLEWIGAIYPGNGDTSYNQKFKGKATLTADKSSSTAYMQLSSLTSEDSAVYYCARSTYYGGDWYFNVWGQGTTVTVSS
VL: QIVLSQSPAILSASPGEKVTMTCRASSSVSYIHWFQQKPGSSPKPWIYATSNLASGVPVRFSGSGSGTSYSLTISRVEAEDAATYYCQQWTSNPPTFGGGTK
notes: Commercial chimeric antibody; also called IDEC-c2B8; Rmab
Dissociation Rates (T 1/2 Min) [3]: 24.3 min
dissociation half-life [4]: 94 min
Dissociation Rates (T 1/2 Min) [5]: 20.1 min
Dissociation Rates (T 1/2 Min) [8]: 21.4 min
Dissociation Rates (T 1/2 Min) [9]: 19 min
Kd [10]: 6.7 to 8.63 nM
Kd [11]: 8.62 nM

B6: cA20, chimeric anti-CD20 antibody (antibody, V domains shown)
VH: QVQLQQPGAELVKPGASVKMSCKASGYTFTSYNMHWVKQTPGRGLEWIGAIYPGNGDTSYNQKFKGKATLTADKSSSTAYMQLSSLTSEDSAVYYCARSTYYGGDWYFDVWGQGTTVTVSS
VL: DIQLTQSPAILSASPGEKVTMTCRASSSVSYIHWFQQKPGSSPKPWIYATSNLASGVPVRFSGSGSGTSYSLTISRVEAEDAATYYCQQWTSNPPTFGGGTKLEIK
Dissociation Rates (T 1/2 Min) [3]: 62 min
Dissociation Rates (T 1/2 Min) [5]: 58.8 min
off-rate, fold slower than rituximab or D101N [7]: ~2.5 fold
Dissociation Rates (T 1/2 Min) [9]: 54.8 min
